Publication PMC11077774, “Molecular mechanism for recognition of the cargo adapter Rab6^GTP by the dynein adapter BicD2” (Life Science Alliance, 2024)

Assays:
Assay in all cases: pull-down; GST-tagged Rab6^GTP (WT = Q72L, or mutant) held on glutathione Sepharose columns, 1 mM GTP and 2 mM MgCl2 added for 30 min; purified BicD2-CTD added and incubated 30 min; washed, eluted with glutathione; SDS-PAGE (16%), Coomassie, band intensities quantified with ImageJ, ratio of bound BicD2-CTD/Rab6^GTP normalised to WT = 1; three experiments
Conditions in all cases: both partners purified
[1] = target: T1, full-length GTP-bound Rab6a/Q72L with N-terminal GST tag (human, UniProt P20340 1-208, Q72L)
T1 construct: pGEX6P1 vector, PreScission site after GST; Construct described in Gibson et al, 2023; also called Rab6^GTP WT; Rab6^GTP; source: E. coli BL20(DE3)-RIL, purified by glutathione Sepharose, washed but not eluted; not shown: GST, N-terminal, kept
T1 sequence (P20340 whole entry Q72L): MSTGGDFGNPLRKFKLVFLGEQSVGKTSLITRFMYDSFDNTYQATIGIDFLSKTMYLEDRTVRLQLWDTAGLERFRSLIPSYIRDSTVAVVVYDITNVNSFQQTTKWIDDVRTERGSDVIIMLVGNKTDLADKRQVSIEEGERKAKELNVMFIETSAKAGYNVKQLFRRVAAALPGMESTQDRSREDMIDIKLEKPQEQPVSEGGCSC

[2] = target: T2, GST-tagged Rab6^GTP (Rab6a/Q72L) Q65A mutant (human, UniProt P20340 1-208, Q72L | Q65A)
T2 construct: Rab6a, human, full length, Q72L background with Q65A; Loaded with 1 mM GTP and 2 mM MgCl2 on the column; source: E. coli BL20(DE3)-RIL, purified by glutathione Sepharose, washed but not eluted; not shown: GST, N-terminal, kept
T2 sequence (P20340 whole entry Q65A/Q72L): as the sequence (P20340 whole entry Q72L) above, with Q65A counted along it

[3] = target: T3, GST-tagged Rab6^GTP (Rab6a/Q72L) K53A mutant (human, UniProt P20340 1-208, Q72L | K53A)
T3 construct: Rab6a, human, full length, Q72L background with K53A; Loaded with 1 mM GTP and 2 mM MgCl2 on the column; source: E. coli BL20(DE3)-RIL, purified by glutathione Sepharose, washed but not eluted; not shown: GST, N-terminal, kept
T3 sequence (P20340 whole entry K53A/Q72L): as the sequence (P20340 whole entry Q72L) above, with K53A counted along it

[4] = target: T4, GST-tagged Rab6^GTP (Rab6a/Q72L) S52A mutant (human, UniProt P20340 1-208, Q72L | S52A)
T4 construct: Rab6a, human, full length, Q72L background with S52A; Loaded with 1 mM GTP and 2 mM MgCl2 on the column; also called phosphonegative mutation S52A; source: E. coli BL20(DE3)-RIL, purified by glutathione Sepharose, washed but not eluted; not shown: GST, N-terminal, kept
T4 sequence (P20340 whole entry S52A/Q72L): as the sequence (P20340 whole entry Q72L) above, with S52A counted along it

Measured: binding result

B1: BicD2-CTD (C-terminal cargo-binding domain of human Bicaudal D2, residues 715-804) (domain or fragment, UniProt Q8TD16 715-804, looked up)
chain: YENEKAMVTETMMKLRNELKALKEDAATFSSLRAMFATRCDEYITQLDEMQRQLAAAEDEKKTLNSLLRMAIQQKLALTQRLELLELDHE
notes: Construct described in Gibson et al, 2022; also called BicD2-CTD WT
binds: all assays above
